Test [1] addresses T1, human 4-1BB, full length, on transfected cells (human, UniProt Q07011 24-255).
T1 construct: whole, on cells; also called CHOK1-h4-1BB
The test can be described thus: FACS, CHOK1-h4-1BB cells; Ab 10 ug/ml. The source says: (§1) The pIRES plasmid carrying the full-length gene of monkey-derived […] (the preparation method is the same as the preparation method of the pCpC vector carrying the human-derived IgG Fc fragment (hFc) in “Preparation of immunogen A” of the step (1) in Example 1, in which the database accession number of the amino acid sequence of the extracellular region of monkey 4-1BB protein (Phe19-Thr239) is G7PSE7) was transfected into CHOK1 cell line to obtain CHOK1 stable transfected cell line containing monkey 4-1BB (herein referred to as CHOK1-c4-1BB stable cell line). The CHOK1-h4-1BB stable cell line and the CHOK1-c4-1BB stable cell line were expanded and cultivated to 90% confluence in T-75 cell culture flasks. The medium was exhausted, and washed twice with HBSS buffer (Hanks Balanced Salt Solution, purchased from Invitrogen), and then the cells were treated and collected with enzyme-free cell dissociation solution (Versene solution, purchased from Life Technology). The cells were washed twice with HBSS buffer, and after cell counting, the cells were diluted with HBSS buffer to 2×10⁶ cells per ml, and 1% goat serum blocking solution was added, the percentage being the mass percentage. It was incubated on ice for 30 minutes, and then washed twice with HBSS buffer by centrifugation. The collected cells were suspended in FACS buffer (HBSS containing 1% BSA, the percentage was the mass percentage) to 2×10⁶ cells/mL, and 100 μl per well was added to a 96-well FACS reaction plate. The purified 4-1BB antibody test sample obtained in Example 2 was added, 100 microliters per well and incubated on ice for 2 hours. […] It was washed three times with FACS buffer by centrifugation, and 100 μl of fixative [4% (v/v) paraformaldehyde] per well was added to suspend cells, and washed twice with FACS buffer after 10 minutes by centrifugation. The cells were suspended with 100 microliters of FACS buffer, and the results were detected and analyzed with FACS (FACS Calibur, purchased from BD).
Background: A flow cytometer gives signals particle by particle.

The target in test [2] is T2, monkey 4-1BB on CHOK1 cells (monkey).
T2 construct: whole, on cells; also called CHOK1-c4-1BB
The test can be described thus: FACS, CHOK1-c4-1BB cells; Ab 0.4 ug/ml.
Description: as §1

Test [3] concerns the target T1, human 4-1BB, full length, on …. The test can be described thus: FACS, CHOK1-h4-1BB cells; Ab 0.08 ug/ml.
Description: as §1

For test [4], the target named is T2, monkey 4-1BB on CHOK1 cells. Put plainly: FACS, CHOK1-c4-1BB cells; Ab 0.08 ug/ml.
Description: as §1

For test [5] the target is unchanged. The test can be described thus: FACS, CHOK1-c4-1BB cells; Ab 0.016 ug/ml.
Description: as §1

The target is the same in test [6]. The test can be described thus: FACS, CHOK1-c4-1BB cells; Ab 0.0032 ug/ml.
Description: as §1

Test [7] concerns the target T3, hFc-tagged human 4-1BB extracellular domain protein (4-1BB-hFc) (human, UniProt Q07011 24-186, limits assumed).
T3 construct: also called immunogen A; 4-1BB^ECD-hFc; not shown: human IgG Fc fragment (hFc) of the pCpC vector
The test can be described thus: ELISA, coated human 4-1BB-hFc; Ab 10 ug/ml. The protocol:
(§2) The purified immunogen A (4-1BB-hFc), monkey 4-1BB-his, and mouse 4-1BB-his obtained in Example 1 [for the preparation method, see step 1 of Example 1, preparation of immunogen A], of which the extracellular domain of monkey-derived 4-1BB protein (purchased from ACRO biosystems), the extracellular domain of mouse 4-1BB protein (purchased from sino biological) or other immune detection point proteins respectively were diluted with PBS to a final concentration of 1.0 μg/mL, then added with […] per well to 96-well ELISA plate. It was sealed with plastic film and incubated at 4° C. overnight. The next day, the plate was washed twice with the plate-washing solution [PBS containing 0.01% (v/v) Tween20] and blocking solution [PBS containing 0.01% (v/v) Tween 20 and 1% (v/v) BSA] was added and blocked at room temperature for 2 hours. The blocking solution was discarded and 100 μl of the purified 4-1BB antibody obtained in Example 2 was added per well. After incubated at 37° C. for 2 hours, the plate was washed 3 times with a plate-washing solution [PBS containing 0.01% (v/v) Tween20]. A secondary antibody (purchased from Sigma) labeled with HRP (horseradish peroxidase) was added, and after incubated at 37° C. for 2 hours, the plate was washed 3 times with a plate-washing solution [PBS containing 0.01% (v/v) Tween20]. 100 μl of TMB substrate was added per well. After incubated for 30 minutes at room temperature, 100 μl of stop buffer (1.0N HCl) was added per well. The A450 nm values were read using an ELISA plate reader (SpectraMax 384plus, Molecular Device).

For test [8], the target named is T1, human 4-1BB, full length, on …. Put plainly: FACS, CHOK1-h4-1BB cells; Ab 0.00064 ug/ml.
Description: as §1

Test [9] addresses T3, hFc-tagged human 4-1BB extracellular …. Put plainly: ELISA, coated human 4-1BB-hFc; Ab 0.4 ug/ml. As to the method:
as §2
On the technique in general: An ELISA detects its analyte on a solid surface through an enzyme-linked reagent.

Test [10] has the same target. Put plainly: ELISA, coated human 4-1BB-hFc; Ab 0.016 ug/ml. As to the method: as §2
The target is the same in test [11]. Put plainly: ELISA, coated human 4-1BB-hFc; Ab 0.0006 ug/ml. As to the method: as §2
The target is the same in test [12]. Put plainly: ELISA: human 4-1BB-hFc coated at 1.0 µg/mL, antibody titrated, HRP secondary antibody, OD450. The protocol: as §2

T1 sequence (Q07011 24-255): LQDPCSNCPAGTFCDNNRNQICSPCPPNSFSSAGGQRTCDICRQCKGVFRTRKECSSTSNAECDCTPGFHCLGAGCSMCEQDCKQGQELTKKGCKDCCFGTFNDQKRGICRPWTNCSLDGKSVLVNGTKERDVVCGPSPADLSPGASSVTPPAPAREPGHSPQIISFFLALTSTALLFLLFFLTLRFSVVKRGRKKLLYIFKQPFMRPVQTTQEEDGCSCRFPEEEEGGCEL

B1: 52F4G2 (antibody, V domains shown)
VH: QVQLQESGPGLVKPSETLSLTCAVSGYSISSGYYWGWIRQPPGKGLEWIGSIFHSGSSYYNPSLKSRVTISVDTSKNQFSLKLRSVTAADTAVYYCARESSGWNCFDYWGQGTLVTVSS
VL: DIQMTQSPSTLSASVGDRVTITCRASQTISTWLAWYQQKPGKAPKLLIYKASNLESGVPSRFSGSGSGTEFTLTISSLQPDDFATYYCQQYNSYSITFGQGTRLEIK
Turning to B1, the average fluorescence intensity in [1] is 615 MFI; in [2], 469 MFI; in [3], 410 MFI; in [4], 130 MFI; in test [5], 41.2 MFI; in test [6], 13.7 MFI. In addition, the average fluorescence intensity in test [8] is 11.7 MFI. The OD450 nm in test [7] was 3.06 OD450 nm; in test [9], 3.09 OD450 nm; in [10] it was 2.51 OD450 nm; in test [11], 0.34 OD450 nm. For the same molecule, the “EC50 (read off the curve)” value in test [12] is around 0.007 µg/mL.

B2: 23G3B8 (antibody, V domains shown)
VH: QVQLQESGPGLVKPSETLSLTCAVSAYSISSGYYWGWIRQPPGKGLEWIGSIFHSGSNYYNPSLKSRVTISVDPSKNQFSLKLSSVTVADTAVYYCARESSGYNCFDYWGQGTLVTVSS
VL: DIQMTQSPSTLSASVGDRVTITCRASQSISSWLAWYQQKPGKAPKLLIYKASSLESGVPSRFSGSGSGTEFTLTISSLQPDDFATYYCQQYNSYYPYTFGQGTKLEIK
With B2, the average fluorescence intensity in test [2] turned out to be 392 MFI; in test [3] it was 399 MFI; in test [4], 154 MFI; in test [5] it was 34.2 MFI; in test [6], 10.8 MFI; in test [8] it was 11.2 MFI. Besides, the OD450 nm came out at 2.78 OD450 nm in test [7], 2.77 OD450 nm in [9], 1.1 OD450 nm in [10] and 0.1 OD450 nm in [11]. In addition, the “EC50 (read off the curve)” value in [12] was around 0.02 µg/mL.

B3: 170D7F2 (antibody, V domains shown)
VH: QVQLVQSGAEVKKPGASVKVSCKASGYTFTSYDINWVRQATGQGLEWMGWMNPNSGNTGYAQKFQGRVTMTRNTSISTAYMELSSLRSEDTAVYYCARETGPFDYWGQGTLVTVSS
VL: DIQMTQSPSSLSASVGDRVTITCRASQRINNYLNWYQQKPGKAPKLLIYGASSLQSGVPSRFSGSGSGTDFTLTISSLQPEDFATYYCQQSYSTPFTFGPGTKVDIK
With B3, the average fluorescence intensity in test [1] stood at 735 MFI; in [2] it was 304 MFI; in test [3], 183 MFI; in test [4], 96.3 MFI; in [5] it was 25.9 MFI; in test [6] it was 8.5 MFI. In test [8], the average fluorescence intensity came out at 4.9 MFI. The OD450 nm in test [7] turned out to be 3.44 OD450 nm; in test [9] it was 3.5 OD450 nm; in [10] it was 1.64 OD450 nm; in test [11] it was 0.19 OD450 nm. Also, the “EC50 (read off the curve)” value in test [12] was around 0.02 µg/mL.

B4: 182A5B3 (antibody, V domains shown)
VH: QVQLVQSGAEVKKPGASVKVSCKASGYTFTSYDINWVRQATGQGLEWMGWMNPNSGNTGYVQKFQGRVTMTRNTSISTAYMELSSLRSEDTAVYYCARETGPFDYWGQGTLVTVSS
VL: not shown
Turning to B4, the average fluorescence intensity is 769 MFI in test [1]; 373 MFI in [2]; 200 MFI in test [3]; 118 MFI in test [4]; 33.2 MFI in test [5]; 10.4 MFI in [6]. The molecule also gave an average fluorescence intensity in test [8] of 5 MFI. In addition, the OD450 nm in test [7] amounted to 3.5 OD450 nm; in test [9], 3.56 OD450 nm; in test [10], 1.48 OD450 nm; in test [11] it was 0.18 OD450 nm. Also, the “EC50 (read off the curve)” value in test [12] is around 0.02 µg/mL.

B5: 289B6G6 (antibody, V domains shown)
VH: QVQLQESGPGLVRPSETLSLTCAVSGYSISSGYYWGWIRQPPGKGLEWIGSIFHSGNTYYNPSLKSRVIVSGDTSKNQFSLKLSSVTAADTAVYYCTRESSGFNVFDIWGQGTMVTVSS
VL: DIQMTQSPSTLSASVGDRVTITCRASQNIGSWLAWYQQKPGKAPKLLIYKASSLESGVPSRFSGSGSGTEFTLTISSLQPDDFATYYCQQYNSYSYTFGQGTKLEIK
Turning to B5, the average fluorescence intensity in [1] turned out to be 2280 MFI; in test [2] it was 466 MFI; in test [3], 453 MFI; in test [4], 179 MFI; in test [5], 47.2 MFI; in test [6], 14.1 MFI. Also, the average fluorescence intensity in test [8] came out at 8.9 MFI. The OD450 nm is 2.8 OD450 nm in test [7], 2.79 OD450 nm in test [9], 1.47 OD450 nm in [10] and 0.11 OD450 nm in test [11]. Further, the “EC50 (read off the curve)” value in [12] was around 0.02 µg/mL.

B6: 118F3A2 (antibody, V domains shown)
VH: QVQLQQWGAGLLKPSETLSLTCGVYGGSFSTNYWSWIRQSPGKGLEWIGEINHSGNTEYNPSLKSRLTISIDTSKNQFSLKLTSVTAADTAVYYCARMGYHSPSFDFWGQGVLVTVSS
VL: KIVMTQSPATLSVSPGERATLPCRVSQGIGSNLAWYQQKPGQAPRLLIYGASTRATGVPARFSGSGSGSEFTLTISSLQSEDLALYYCQQYNNWPLTFGGGTKVEIK
Regarding B6, the average fluorescence intensity was determined as 527 MFI in test [1]; 408 MFI in test [2]; 346 MFI in test [3]; 114 MFI in test [4]; 41.2 MFI in test [5]; 11.8 MFI in test [6]. The molecule also displayed an average fluorescence intensity in [8] of 10.8 MFI. Also, the OD450 nm in test [7] came to 2.73 OD450 nm; in [9], 2.73 OD450 nm; in test [10] it was 0.99 OD450 nm; in [11], 0.44 OD450 nm. Besides, the “EC50 (read off the curve)” value in test [12] is around 0.03 µg/mL.

The term EC50 (read off the curve) denotes the concentration giving half of the maximal effect.

For the origin of these results see patent US20200347144A1 (SHANGHAI HYAMAB BIOTECH, published 2020).
